Entries after “also recorded” stand apart in the source; their conditions may differ.
Legend:
[1] = system: FRα positive cancerous cell lines; assay: In vitro cytotoxicity assay (MTT) on FRα+ cancerous cell lines; format: cell-based, Human; conditions: 144 hours incubation, several FRα positive cell lines (FIG. 3)
Description: In vitro cytotoxicity of compound exatecan mesylate was assessed on several FRα positive cancerous cell lines. Cells were plated in 96-well plates at an appropriate density depending on the cell line (between 1000 and 10000 cells/well in 100 μL of appropriate culture media) and incubated at 37° C. for 24 hours. Serial dilutions of the tested compound previously dissolved in culture media (50 μL) were added, and incubation was carried at 37° C. out for 144 hours. MTT (5 mg/mL, 20 μL, Sigma-Aldrich) was added into the wells, and incubation was continued for 1 to 2 hours at 37° C. Culture media was then carefully removed, and well content was homogeneously dissolved with acidified isopropanol. Absorbance values were measured on a Multiskan™ Sky microplate reader (Thermo Scientific) using a wavelength of 570 nm (with a reference wavelength of 690 nm). The IC50 concentration values compared to untreated control cells were determined using inhibition dose response curve fitting (GraphPad Prism 9).

recombinant human FRα [2] = target: T1, recombinant human FRα (Homo sapiens, UniProt P15328); assay: Human FRα-binding affinity by SPR (Biacore); conditions: Biacore T200, 25° C. (FIG. 5)
T1 construct: purchased Sino Biological 11241-H08H
T1 sequence (P15328 25-234): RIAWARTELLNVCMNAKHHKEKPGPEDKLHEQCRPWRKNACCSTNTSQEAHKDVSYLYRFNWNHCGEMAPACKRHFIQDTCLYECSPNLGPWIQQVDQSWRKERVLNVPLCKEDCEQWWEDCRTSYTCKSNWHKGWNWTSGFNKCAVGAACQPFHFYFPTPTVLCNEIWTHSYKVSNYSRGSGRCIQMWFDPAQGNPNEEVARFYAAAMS
Description: Surface plasmon resonance (SPR) experiments are performed on a Biacore T200 apparatus, at 25° C. Tested antibody or ADC are captured at low density (300-500 RU) on a CM5 series S sensorchip, beforehand functionalized with a Human Antibody Capture kit (Cytiva cat #BR100839). A functionalized surface/flow cell treated similarly but omitting ligand is used as reference. To measure kinetics rates and affinities, recombinant human FRα (Sino Biological cat #11241-H08H) analyte sample is injected in duplicates at 5 concentrations (0.5, 1, 2, 4, 8 nM) in series using single cycle kinetics strategy and at constant […] flow rate of running buffer (HBS-EP+, Cytiva cat #BR100669) with contact pulses of 300 sec. The dissociation phase is measured by injection of running buffer for 900 sec. Between duplicates, surfaces/flow cells are regenerated with 3M MgCl2 to remove both analyte and ligand, and fresh ligand capture are done using identical conditions. The data analysis is performed using the Biacore Evaluation software after subtraction of reference surface and analyte zero-concentration signals. […]
Surface plasmon resonance (SPR) experiments were performed on a Biacore T200 apparatus, at 25° C. […] The dissociation phase was measured by injection of running buffer for 900 sec. […]

recombinant human FRα [3] = target: T1, recombinant human FRα; assay: Recombinant FRα-binding affinity by ELISA (human); conditions: FIG. 4A/4B
Description: Sandwich ELISA assays are performed using 96-well high-binding ELISA plates (Corning Inc., New York, NY, USA, Cat #3590). Plates are coated using 100 µL/well of recombinant human FRα protein (Sino Biological cat #11241-H08H) in PBS (pH 7.4) at 2 μg/mL and incubated overnight at 4° C. After 2 washes with PBS-T (PBS+0.05% Tween-20), the plates are blocked with 200 μL/well of incubation buffer (PBS-T+0.1% BSA) for 1 h at room temperature. The plates are washed 4 times with PBS-T, and 100 μL of a threefold dilution series of tested compound (antibody or antibody-drug conjugate) is added. Then, the plates are incubated for 2 h at room temperature in the dark. After 5 washes with PBS-T, plates are incubated 1 h at room temperature with 100 μL/well of a goat anti-human IgG (H+L) HRP conjugated antibody (Jackson Immunoresearch cat #109-035-088), previously diluted 1:250000 in incubation buffer. After 5 washes with PBS-T, TMB substrate solution (Thermo-Fisher cat #N301) is added. Peroxidase activity is stopped with 0.18M H2SO4 and absorbance is read at 450 nm (reference wavelength 650 nm) using a Thermo Scientific MultiSkan EX microplate reader. Sigmoidal fittings were performed using GraphPad Prism 9 software.
Sandwich ELISA assays were performed using 96-well high-binding ELISA plates (Corning Inc., New York, NY, USA, Cat #3590). Plates were coated using 100 μL/well of recombinant human FRα protein (Sino Biological cat #11241-H08H); recombinant cynomolgus FRα protein (Sino Biological cat #90950-C08H); recombinant rat FRα protein (Sino Biological cat #81073-R08H) or recombinant mouse FRα protein (Sino Biological cat #50573-M08H) in PBS (pH 7.4) at 2 μg/mL and incubated overnight at 4° C. After 2 washes with PBS-T (PBS+0.05% Tween-20), the plates were blocked with 200 μL/well of incubation buffer (PBS-T+0.1% BSA) for 1 h at room temperature. […] Peroxidase activity was stopped with 0.18M H2SO4 and absorbance was read at 450 nm (reference wavelength 650 nm) using a Thermo Scientific MultiSkan EX microplate reader. […]

[4] = target: T2, extracellular human FRα expressed on cancerous cell lines (Homo sapiens, UniProt P15328); assay: Cell-binding affinity by flow cytometry; conditions: APC-labelled antibody or ADC, flow cytometry (FIG. 6)
T2 construct: endogenous in cells; host or cells: human cancer cell lines (ATCC/DSMZ/ECACC); BT-474 as FRα-negative control
T2 sequence (P15328 25-234): as above
Description: Antibody or ADC binding to extracellular human FRα expressed on cancerous cell lines is assessed by flow cytometry. Tested antibody or ADC is conjugated to APC fluorophore using LYNX Rapid APC Antibody Conjugation Kit according to the manufacturer's protocol (Bio-Rad, Cat #LNK032APC). Into 500000 cells (suspended in 100 μL of PBS in flow cytometry plastic tubes) is added 5 μL of a 10 μg/mL solution of tested APC-labelled antibody or ADC. Cells are incubated 20 min in the dark, are washed with PBS 3 times by centrifugation and are re-suspended in 200 μL of PBS for analysis. Flow cytometry is performed using a BD Fortessa flow cytometer controlled by BD FACSDiva software (BD Biosciences) and data are analyzed using FlowJo software (BD Bioscience).
Antibody or ADC binding to extracellular human FRα expressed on cancerous cell lines was assessed by flow cytometry. Tested antibody or ADC was conjugated to APC fluorophore using LYNX Rapid APC Antibody Conjugation Kit according to the manufacturer's protocol (Bio-Rad, Cat #LNK032APC). Into 500000 cells (suspended in 100 μL of PBS in flow cytometry plastic tubes) was added 5 μL of a 10 μg/mL solution of tested APC-labelled antibody or ADC. Cells were incubated 20 min in the dark, were washed with PBS 3 times by centrifugation and were re-suspended in 200 μL of PBS for analysis. Flow cytometry was performed using a BD Fortessa flow cytometer controlled by BD FACSDiva software (BD Biosciences) and data were analyzed using FlowJo software (BD Bioscience).

recombinant human FRα binding (SPR), in words (recombinant human FRα [2]) | recombinant human FRα binding (ELISA), in words (recombinant human FRα [3]) | human FRα cell binding [4] | Substance | IC50's in vitro potencies [1]
 |  |  | Exatecan Mesylate | sub-nM to low-nM
No loss of binding | No loss of binding | Comparable human FRα cell binding | farletuzumab-LALA: Fc-silent farletuzumab with L234A and L235A mutations, heavy chain SEQ ID NO:9, light chain SEQ ID NO:10 | 
 | No significant loss of binding | binding affinity appeared identical | mirvetuximab: humanized anti-FRα antibody, heavy chain SEQ ID NO:16, light chain SEQ ID NO:17 | 

Substance | recombinant human FRα binding (SPR), in words (recombinant human FRα [2]) | recombinant human FRα binding (ELISA), in words (recombinant human FRα [3]) | human FRα cell binding [4] | IC50's in vitro potencies [1]
farletuzumab: anti-FRα IgG1 antibody, heavy chain SEQ ID NO:11, light chain SEQ ID NO:10 | No loss of binding | No loss of binding | Comparable human FRα cell binding; also recorded: binding affinity appeared identical | 
